According to the supplement of paper PMC9170038:

System: K4 kissing-loop RNA reporter
Assay: apparent KD of K4 kissing-loop reporter; higher = weaker reporter binding
Conditions: Eterna round: R107
Procedure: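 RNA-MaP round R107: designed RNA switches with theophylline, tryptophan, arginine or FMN aptamers are transcribed on-chip within common flanks. They are titrated with a labelled K4 kissing-loop RNA reporter in RNA-MaP buffer (100 mM Tris pH 7.5, 80 mM KCl, 4 mM MgCl2), without ligand or with the indicated ligand. Median apparent KD per design.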

[1] = input ligand: theophylline 20 uM
[2] = input ligand: tryptophan 2.4 mM
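Also: bound reporter read as fluorescence of individual clusters on recovered sequencing chips by microscopy, with normalized cluster intensities fitted with a binding model.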

With “UUUUUGGAGAAUUAUAGUGAUGUUAUGAAGGAGGAUAUCUGGAGAUGGAGAAGGCCUAGUGGCUCAGGGAUGGAGGGUGGGUGGG [ExFMNA.Y]” as the sequence, how does the “apparent KD of K4 kissing-loop reporter” value (input ligand: FMN 200 uM) read?
Its value is 704 nM.

And the “apparent KD of K4 kissing-loop reporter” value (input ligand: arginine 13.2 mM)?
The value was 411 nM.

And the “apparent KD of K4 kissing-loop reporter” value (input ligand: none)?
The value was 487 nM.

What about the “apparent KD of K4 kissing-loop reporter” value [1] of the same sequence?
The value was 655 nM.

And the “apparent KD of K4 kissing-loop reporter” value [2]?
Its value is 301 nM.

Which results are given for “GAGGCCAGACGGAGUGAUGUUUCGUAUGAUACCAGCAGCGAAAGCUGCCCUUGGCAGCAUGCCACGGCCUCGGCGGGAAACCGCC”?
apparent KD of K4 kissing-loop reporter (input ligand: FMN 200 uM): 372 nM; apparent KD of K4 kissing-loop reporter (input ligand: arginine 13.2 mM): 319 nM; apparent KD of K4 kissing-loop reporter (input ligand: none): 397 nM; apparent KD of K4 kissing-loop reporter [1]: 446 nM; apparent KD of K4 kissing-loop reporter [2]: 384 nM

How did the “apparent KD of K4 kissing-loop reporter” value (input ligand: FMN 200 uM) turn out when “GGAUAGGACAGAGGAUAUCUCUGAGGCAAGAAAACUUGUCUCUAAAGAGAUGACUCAGUGAUGUUGAGAGAAGGCUGUCCUAUCG [FmnBX 9 - #SwitchBubble #StaticStem]” was run?
The value was 211 nM.

And the “apparent KD of K4 kissing-loop reporter” value (input ligand: arginine 13.2 mM)?
The value was 143 nM.

And the “apparent KD of K4 kissing-loop reporter” value (input ligand: none)?
Its value is 152 nM.

What about the “apparent KD of K4 kissing-loop reporter” value [1] of the same sequence?
The value was 155 nM.

What about the “apparent KD of K4 kissing-loop reporter” value [2] of the same sequence?
The value was 148 nM.

What does the source list for “CACGGAGUGAUGUUCCGACCGAGGAACGAUACCAGACAAGUAUACGUCCCUUGGCAGCGUUUCUUAUAUAGUCAACGUUACCGUA [Theo A Ex t3]”?
apparent KD of K4 kissing-loop reporter (input ligand: FMN 200 uM): 395 nM; apparent KD of K4 kissing-loop reporter (input ligand: arginine 13.2 mM): 469 nM; apparent KD of K4 kissing-loop reporter (input ligand: none): 507 nM; apparent KD of K4 kissing-loop reporter [1]: 537 nM; apparent KD of K4 kissing-loop reporter [2]: 405 nM

Which “apparent KD of K4 kissing-loop reporter” value (input ligand: FMN 200 uM) does the source give for “UUUUGGUUCUGAGGAUAUUCGAAGAAAUAUAGUGAUGUUAUAUAAGGAGGAGGAUGUAGGGAGGAAGGAGAAGGCAGAAGAGGAG [ExFMNB.J]” here?
Its value is 1040 nM.

And the “apparent KD of K4 kissing-loop reporter” value (input ligand: arginine 13.2 mM)?
Its value is 915 nM.

And the “apparent KD of K4 kissing-loop reporter” value (input ligand: none)?
The value was 880 nM.

And the “apparent KD of K4 kissing-loop reporter” value [1]?
Its value is 377 nM.

And the “apparent KD of K4 kissing-loop reporter” value [2]?
The value was 480 nM.

With “GGUAGCAUGGCGGCCGCCACUGAGGCCCUAUACGAGUCCUAAACAACCUAGUGAUGUUAGGAGUCCAGGACCGGGCCAUGCUACC” as the sequence, how does the “apparent KD of K4 kissing-loop reporter” value (input ligand: FMN 200 uM) read?
The value was 271 nM.

And the “apparent KD of K4 kissing-loop reporter” value (input ligand: arginine 13.2 mM)?
The value was 175 nM.

What about the “apparent KD of K4 kissing-loop reporter” value (input ligand: none) of the same sequence?
The value was 254 nM.

And the “apparent KD of K4 kissing-loop reporter” value [1]?
The value was 262 nM.

And the “apparent KD of K4 kissing-loop reporter” value [2]?
The value was 440 nM.

How did the “apparent KD of K4 kissing-loop reporter” value (input ligand: FMN 200 uM) turn out when “UUUUUGGAGAAUUAUAGUGAUGUUAUGAAGAAGGAUAUCUAAAGAUGGAGAAGGUUUAAUAGUUAAGGGAUGGAGGGUGGGUGGG [ExFMNA.P]” was run?
The value was 282 nM.

And the “apparent KD of K4 kissing-loop reporter” value (input ligand: arginine 13.2 mM)?
The value was 155 nM.

What about the “apparent KD of K4 kissing-loop reporter” value (input ligand: none) of the same sequence?
The value was 293 nM.

And the “apparent KD of K4 kissing-loop reporter” value [1]?
The value was 221 nM.

What about the “apparent KD of K4 kissing-loop reporter” value [2] of the same sequence?
Its value is 194 nM.

Which “apparent KD of K4 kissing-loop reporter” value (input ligand: FMN 200 uM) does the source give for “AGUCCGCUCCAAGGAUAUAGUCCGGCUGCGCGUCAGUGAUGUUGAAGAAGUAUCGCGUCUCUAUAGCUAGAAGGUGGCGCAAUUG [theeternabot_sameState_KL_FMN_B_20]” here?
The value was 715 nM.

What about the “apparent KD of K4 kissing-loop reporter” value (input ligand: arginine 13.2 mM) of the same sequence?
Its value is 471 nM.

What about the “apparent KD of K4 kissing-loop reporter” value (input ligand: none) of the same sequence?
The value was 989 nM.

What about the “apparent KD of K4 kissing-loop reporter” value [1] of the same sequence?
Its value is 696 nM.

What about the “apparent KD of K4 kissing-loop reporter” value [2] of the same sequence?
The value was 782 nM.

Which “apparent KD of K4 kissing-loop reporter” value (input ligand: FMN 200 uM) does the source give for “AUAGGAGUGAUGUUCCUUAGUUUCUCCGAUACCAGUAUGGAAACAUACCCUUGGCAGCGGGAAACCGCUGAUUAGGAAACUAGUC [Theophylline A K4 7]” here?
Its value is 256 nM.

What about the “apparent KD of K4 kissing-loop reporter” value (input ligand: arginine 13.2 mM) of the same sequence?
The value was 271 nM.

What about the “apparent KD of K4 kissing-loop reporter” value (input ligand: none) of the same sequence?
Its value is 282 nM.

What about the “apparent KD of K4 kissing-loop reporter” value [1] of the same sequence?
The value was 242 nM.

And the “apparent KD of K4 kissing-loop reporter” value [2]?
The value was 223 nM.

“AAAAUAACCCAGUGAUGUUGGUCUCCAGAUACCAGCGACGAAAGUCGCCCUUGGCAGCUGUGGACGUACAAAAUAAGUACGUCCU” was tested. Which “apparent KD of K4 kissing-loop reporter” value (input ligand: FMN 200 uM) did it give?
The value was 661 nM.

What about the “apparent KD of K4 kissing-loop reporter” value (input ligand: arginine 13.2 mM) of the same sequence?
The value was 629 nM.

And the “apparent KD of K4 kissing-loop reporter” value (input ligand: none)?
The value was 776 nM.

What about the “apparent KD of K4 kissing-loop reporter” value [1] of the same sequence?
Its value is 485 nM.

And the “apparent KD of K4 kissing-loop reporter” value [2]?
The value was 558 nM.

“UCGAGUUGACGAAAAGUCAACUCGUGAGAUACCAGUGACGAAAGUCACCCUUGGCAGCUCACUGCCAGUGAUGUUGGUGUAUAGA [#06 K4 Theophylline A Same State]” was tested. Which “apparent KD of K4 kissing-loop reporter” value (input ligand: FMN 200 uM) did it give?
The value was 856 nM.

What about the “apparent KD of K4 kissing-loop reporter” value (input ligand: arginine 13.2 mM) of the same sequence?
Its value is 840 nM.

And the “apparent KD of K4 kissing-loop reporter” value (input ligand: none)?
The value was 1030 nM.

And the “apparent KD of K4 kissing-loop reporter” value [1]?
The value was 996 nM.

And the “apparent KD of K4 kissing-loop reporter” value [2]?
Its value is 955 nM.

What does the source list for “UGAUAAAGCAGUGAUGUUGCAAGUAAUGAUACCAGUUAAGAAGAGAACCCUUGGCAGCAUAAAGUGCGCUCUGAUGAGUGUGCUU [whbob_SS_Theo_A_w52]”?
apparent KD of K4 kissing-loop reporter (input ligand: FMN 200 uM): 96.7 nM; apparent KD of K4 kissing-loop reporter (input ligand: arginine 13.2 mM): 130 nM; apparent KD of K4 kissing-loop reporter (input ligand: none): 111 nM; apparent KD of K4 kissing-loop reporter [1]: 152 nM; apparent KD of K4 kissing-loop reporter [2]: 95.6 nM

What does the source list for “CCUAUCUCAUACGAUACCAGUCGUCGAGUGAUGUUCGAUUAAAUAUAUUUGCCAAAUAACGACCCUUGGCAGCGUAUGGGAUAGG [Ex Theophylline B K4 17]”?
apparent KD of K4 kissing-loop reporter (input ligand: FMN 200 uM): 367 nM; apparent KD of K4 kissing-loop reporter (input ligand: arginine 13.2 mM): 328 nM; apparent KD of K4 kissing-loop reporter (input ligand: none): 340 nM; apparent KD of K4 kissing-loop reporter [1]: 417 nM; apparent KD of K4 kissing-loop reporter [2]: 314 nM

“GCCGUACGCAUGGAUACCAGUCUAAGAGUGAUGUUCUUACCGAUUGCGCCUGGAUCAUUAGACCCUUGGCAGCCAUGCGUACGGC” was tested. Which “apparent KD of K4 kissing-loop reporter” value (input ligand: FMN 200 uM) did it give?
The value was 155 nM.

And the “apparent KD of K4 kissing-loop reporter” value (input ligand: arginine 13.2 mM)?
Its value is 117 nM.

And the “apparent KD of K4 kissing-loop reporter” value (input ligand: none)?
Its value is 126 nM.

What about the “apparent KD of K4 kissing-loop reporter” value [1] of the same sequence?
Its value is 148 nM.

What about the “apparent KD of K4 kissing-loop reporter” value [2] of the same sequence?
The value was 146 nM.

“GGUAGCAUGAUGGAUACCAGUCCAAAUGGAGUGAUGUUCCAACAACAGGUUAGGCUGCUGGACCCUUGGCAGCCGUCAUGCUACC” was tested. Which “apparent KD of K4 kissing-loop reporter” value (input ligand: FMN 200 uM) did it give?
The value was 141 nM.

And the “apparent KD of K4 kissing-loop reporter” value (input ligand: arginine 13.2 mM)?
Its value is 120 nM.

And the “apparent KD of K4 kissing-loop reporter” value (input ligand: none)?
The value was 160 nM.

What about the “apparent KD of K4 kissing-loop reporter” value [1] of the same sequence?
The value was 121 nM.

And the “apparent KD of K4 kissing-loop reporter” value [2]?
The value was 133 nM.

Which “apparent KD of K4 kissing-loop reporter” value (input ligand: FMN 200 uM) does the source give for “UGUGUUUACCUGACUCAGUGAUGUUGAGAAGGAGCGUGCUAAAGCACAGGUAGGUCGCUCAACCUAAAUUCAGGUGAGCACUAAA” here?
Its value is 350 nM.

What about the “apparent KD of K4 kissing-loop reporter” value (input ligand: arginine 13.2 mM) of the same sequence?
The value was 258 nM.

What about the “apparent KD of K4 kissing-loop reporter” value (input ligand: none) of the same sequence?
Its value is 312 nM.

What about the “apparent KD of K4 kissing-loop reporter” value [1] of the same sequence?
The value was 326 nM.

And the “apparent KD of K4 kissing-loop reporter” value [2]?
The value was 257 nM.

Which “apparent KD of K4 kissing-loop reporter” value (input ligand: FMN 200 uM) does the source give for “ACCCAAGCCCAUCGCGCAGUGAUGUUGUCGCGAGGACCGGUACGGCCGCCACUCGAUAGCAGUGGCAACGUCAUCAUAAUCGAUU [theeternabot_exclusion_KL_Trp_A_50]” here?
Its value is 340 nM.

What about the “apparent KD of K4 kissing-loop reporter” value (input ligand: arginine 13.2 mM) of the same sequence?
The value was 310 nM.

And the “apparent KD of K4 kissing-loop reporter” value (input ligand: none)?
The value was 352 nM.

And the “apparent KD of K4 kissing-loop reporter” value [1]?
Its value is 299 nM.

And the “apparent KD of K4 kissing-loop reporter” value [2]?
The value was 563 nM.

“GUGGCACGAAAGUGCCACGCAUCCUCUCCCUAGGAUAUCUGGAAACAGAGAAGGAGGUCAUGAGUGAUGUUCAUCCAGAGGAUGC” was tested. Which “apparent KD of K4 kissing-loop reporter” value (input ligand: FMN 200 uM) did it give?
The value was 258 nM.

And the “apparent KD of K4 kissing-loop reporter” value (input ligand: arginine 13.2 mM)?
Its value is 677 nM.

And the “apparent KD of K4 kissing-loop reporter” value (input ligand: none)?
The value was 756 nM.

And the “apparent KD of K4 kissing-loop reporter” value [1]?
The value was 738 nM.

What about the “apparent KD of K4 kissing-loop reporter” value [2] of the same sequence?
Its value is 491 nM.

Which results are given for “GGUAGCAUGGCGGCCGCCACUCGCAUCACAGGCCAUUAACCGCCCUCGUAAAGUGAUGUUUUACAGAGGACCGGGCCAUGCUACC”?
apparent KD of K4 kissing-loop reporter (input ligand: FMN 200 uM): 331 nM; apparent KD of K4 kissing-loop reporter (input ligand: arginine 13.2 mM): 257 nM; apparent KD of K4 kissing-loop reporter (input ligand: none): 297 nM; apparent KD of K4 kissing-loop reporter [1]: 323 nM; apparent KD of K4 kissing-loop reporter [2]: 195 nM
